Measured values from patent publication US20250281611A1 (BIOSCEPTRE AUST, published 2025).

T1: CD19 (UniProt P15391 20-556, limits assumed)
T1 construct: whole, on cells; also called CD19 on JeKo-1
T1 sequence (looked up): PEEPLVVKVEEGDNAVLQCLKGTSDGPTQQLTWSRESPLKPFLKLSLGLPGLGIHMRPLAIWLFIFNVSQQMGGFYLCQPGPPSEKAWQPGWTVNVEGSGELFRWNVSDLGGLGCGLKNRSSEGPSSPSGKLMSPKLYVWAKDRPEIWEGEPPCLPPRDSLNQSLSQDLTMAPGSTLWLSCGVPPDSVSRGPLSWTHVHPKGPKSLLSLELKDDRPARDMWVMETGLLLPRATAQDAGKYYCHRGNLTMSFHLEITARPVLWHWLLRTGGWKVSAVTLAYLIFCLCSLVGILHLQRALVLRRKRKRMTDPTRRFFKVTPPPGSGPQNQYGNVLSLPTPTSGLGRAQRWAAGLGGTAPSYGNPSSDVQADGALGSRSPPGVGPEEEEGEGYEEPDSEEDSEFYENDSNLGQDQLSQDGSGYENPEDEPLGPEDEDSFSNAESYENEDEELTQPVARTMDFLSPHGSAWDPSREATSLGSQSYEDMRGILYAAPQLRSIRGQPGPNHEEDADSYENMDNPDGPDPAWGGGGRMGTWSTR


Assays:
[1] = target: T2, nfP2X7 CAR 1; assay: flow cytometry, anti-His-FITC, MFI on EGFR+ (CAR+) T cells over background 0.44
T2 construct: CAR-positive cells gated by the co-expressed EGFR marker; also called nfP2X7 targeted CAR; nfP2X7 CAR on EGFR+ T cells
Description: (§1) nfP2X₇ CAR T cells were incubated with different BRiDGE variants at saturating concentrations. […] The MFI intensity correlates with the number of secondary bound antibodies bound to the BRiDGEs that are only detected if they are bound to the CAR T cells. EGFR was used as a marker gene to detect the CAR expression. Thus, the EGFR+ T cell population was defined as the CAR expressing cells and the EGFR− T cell population was defined as the CAR negative subset. MFI: median fluorescence intensity. EGFR: epidermal growth factor receptor. BLItz: Bio-Layer interferometry (BLI) technology using HIS-tag identification tips. HIS-tag MFI Ratio: relative index that is calculated by the testing condition MFI divided by the control MFI, which corresponds to the MFI measured on EGFR+ T cells (defined as CAR positive cells) divided by the MFI measured on the EGFR− T cells (defined as CAR negative cells). […] The higher the MFIR, the stronger the binding.

[2] = target: T1, CD19; assay: flow cytometry, JeKo-1 cells, BIL03s-AF647 detection, MFI over no-bridge control
Description: (§2) JeKo-1 cells were incubated with different CD19 BRiDGE variants at saturating concentrations. […] The MFI intensity correlates with the number of secondary bound antibodies bound to the CD19 BRiDGE variants that are only detected if they are bound to the JeKo-1 cells. MFI: median fluorescence intensity. BLitz: Bio-Layer interferometry (BLI) technology using HIS-tag identification tips. […] The higher the MFIR, the stronger the binding.

[3] = target: T2, nfP2X7 CAR 1; assay: flow cytometry, anti-His-FITC, MFI on EGFR+ (CAR+) over EGFR- (CAR-) T cells
Description: as §1

[4] = target: T2, nfP2X7 CAR 1; assay: flow cytometry, nfP2X7 CAR 1 T cells (EGFR+ gate), anti-His-FITC detection
Description: as §1

[5] = target: T1, CD19; assay: flow cytometry, JeKo-1 cells, bridge at saturating conc., anti-His-FITC detection
Description: as §2

[6] = target: T1, CD19; assay: flow cytometry, JeKo-1 cells, bridge at saturating conc., BIL03s-AF647 detection
Description: as §2

[7] = target: T1, CD19; assay: flow cytometry, JeKo-1 cells, anti-His-FITC detection, MFI over no-bridge control
Description: as §2

| Binder | HisTag MFI Ratio (background 0.44) [1] | MFIR BIL03 AF647 [2] | HisTag MFI Ratio of EGFR+/EGFR- [3] | MFI HisTag FITC in EGFR+ Population [4] | MFI HisTag FITC [5] | MFI Bil03 AF647 [6] | MFIR HisTag FITC [7] |
| --- | --- | --- | --- | --- | --- | --- | --- |
| CD19 BRIDGE variant B8 (Fab, V domains shown) VH: EVQLVESGGGLVKPGGSLKLSCAASGYTFTSYVMHWVRQAPGKGLEWIGYINPYNDGTKYNEKFQGRVTISSDKSISTAYMELSSLRSEDTAMYYCARGTYYYGTRVFDYWGQGTLVTVSS VL: DIVMTQSPATLSLSPGERATLSCRSSKSLQNVNGNTYLYWFQQKPGQSPQLLIYRMSNLNSGVPDRFSGSGSGTEFTLTISSLEPEDFAVYYCMQHLEYPITFGAGTKLEIKR | 5.8 | 23 | 4.4 | 2.53 | 3.58 | 10.6 | 4.65 |
| CD19 BRIDGE variant B4 (Fab) heavy: EVQLVESGGGLVKPGGSLKLSCAASGYTFTSYVMHWVRQAPGKGLEWIGYINPYNDGTKYNEKFQGRVTISSDKSISTAYMELSSLRSEDTAMYYCARGTYYYGTRVFDYWGQGTLVTVSSASTKGPSVFPLAPSSKSTSGGTAALGCLVKDYFPEPVTVSWNSGALTSGVHTFPAVLQSSGLYSLSSVVTVPSSSLGTQTYICNVNHKPSNTKVDKKVEPKSCHHHHHH light: GHNYTTRNILPGLNITSTFHKTSGSGKEPKSSDKTHTDIVMTQSPATLSLSPGERATLSCRSSKSLQNVNGNTYLYWFQQKPGQSPQLLIYRMSNLNSGVPDRFSGSGSGTEFTLTISSLEPEDFAVYYCMQHLEYPITFGAGTKLEIKRTVAAPSVFIFPPSDEQLKSGTASVVCLLNNFYPREAKVQWKVDNALQSGNSQESVTEQDSKDSTYSLSSTLTLSKADYEKHKVYACEVTHQGLSSPVTKSFNRGEC | 4.7 | 19.6 | 4.1 | 2.05 | 3.89 | 9.02 | 5.05 |
| CD19 BRIDGE variant B5 (Fab) heavy: EVQLVESGGGLVKPGGSLKLSCAASGYTFTSYVMHWVRQAPGKGLEWIGYINPYNDGTKYNEKFQGRVTISSDKSISTAYMELSSLRSEDTAMYYCARGTYYYGTRVFDYWGQGTLVTVSSASTKGPSVFPLAPSSKSTSGGTAALGCLVKDYFPEPVTVSWNSGALTSGVHTFPAVLQSSGLYSLSSVVTVPSSSLGTQTYICNVNHKPSNTKVDKKVEPKSCHHHHHH light: GHNYTTRNILPGLNITSTFHKTSGSGKGSEPKSSDKTHTDIVMTQSPATLSLSPGERATLSCRSSKSLQNVNGNTYLYWFQQKPGQSPQLLIYRMSNLNSGVPDRFSGSGSGTEFTLTISSLEPEDFAVYYCMQHLEYPITFGAGTKLEIKRTVAAPSVFIFPPSDEQLKSGTASVVCLLNNFYPREAKVQWKVDNALQSGNSQESVTEQDSKDSTYSLSSTLTLSKADYEKHKVYACEVTHQGLSSPVTKSFNRGEC | 4.7 | 12 | 4.2 | 2.08 | 3.4 | 5.5 | 4.42 |
| CD19 BRIDGE variant B6 (Fab) heavy: EVQLVESGGGLVKPGGSLKLSCAASGYTFTSYVMHWVRQAPGKGLEWIGYINPYNDGTKYNEKFQGRVTISSDKSISTAYMELSSLRSEDTAMYYCARGTYYYGTRVFDYWGQGTLVTVSSASTKGPSVFPLAPSSKSTSGGTAALGCLVKDYFPEPVTVSWNSGALTSGVHTFPAVLQSSGLYSLSSVVTVPSSSLGTQTYICNVNHKPSNTKVDKKVEPKSCHHHHHH light: GHNYTTRNILPGLNITSTFHKTSGSGKGGGSEPKSSDKTHTDIVMTQSPATLSLSPGERATLSCRSSKSLQNVNGNTYLYWFQQKPGQSPQLLIYRMSNLNSGVPDRFSGSGSGTEFTLTISSLEPEDFAVYYCMQHLEYPITFGAGTKLEIKRTVAAPSVFIFPPSDEQLKSGTASVVCLLNNFYPREAKVQWKVDNALQSGNSQESVTEQDSKDSTYSLSSTLTLSKADYEKHKVYACEVTHQGLSSPVTKSFNRGEC | 4.5 | 11.5 | 4.1 | 1.99 | 3.33 | 5.29 | 4.32 |

Now from value to binder:

| HisTag MFI Ratio (background 0.44) [1] | MFIR BIL03 AF647 [2] | HisTag MFI Ratio of EGFR+/EGFR- [3] | MFI HisTag FITC in EGFR+ Population [4] | MFI HisTag FITC [5] | MFI Bil03 AF647 [6] | MFIR HisTag FITC [7] | Binder |
| --- | --- | --- | --- | --- | --- | --- | --- |
| 5.3 | 10.5 | 4.1 | 2.32 | 3 | 4.82 | 3.9 | CD19 BRIDGE variant B9 (Fab, V domains shown) VH: EVQLVESGGGLVKPGGSLKLSCAASGYTFTSYVMHWVRQAPGKGLEWIGYINPYNDGTKYNEKFQGRVTISSDKSISTAYMELSSLRSEDTAMYYCARGTYYYGTRVFDYWGQGTLVTVSS VL: DIVMTQSPATLSLSPGERATLSCRSSKSLQNVNGNTYLYWFQQKPGQSPQLLIYRMSNLNSGVPDRFSGSGSGTEFTLTISSLEPEDFAVYYCMQHLEYPITFGAGTKLEIKR |
| 5.1 | 16.8 | 4.3 | 2.26 | 3.27 | 7.71 | 4.25 | CD19 BRIDGE variant B10 (Fab) heavy: EVQLVESGGGLVKPGGSLKLSCAASGYTFTSYVMHWVRQAPGKGLEWIGYINPYNDGTKYNEKFQGRVTISSDKSISTAYMELSSLRSEDTAMYYCARGTYYYGTRVFDYWGQGTLVTVSSASTKGPSVFPLAPSSKSTSGGTAALGCLVKDYFPEPVTVSWNSGALTSGVHTFPAVLQSSGLYSLSSVVTVPSSSLGTQTYICNVNHKPSNTKVDKKVEPKSCHHHHHH light: GHNYTTRNILPGLNITSTFHKTSGSGKEPKSSDKTHTGSDIVMTQSPATLSLSPGERATLSCRSSKSLQNVNGNTYLYWFQQKPGQSPQLLIYRMSNLNSGVPDRFSGSGSGTEFTLTISSLEPEDFAVYYCMQHLEYPITFGAGTKLEIKRTVAAPSVFIFPPSDEQLKSGTASVVCLLNNFYPREAKVQWKVDNALQSGNSQESVTEQDSKDSTYSLSSTLTLSKADYEKHKVYACEVTHQGLSSPVTKSFNRGEC |
| 4.5 | 14 | 4 | 2 | 3.08 | 6.43 | 4 | CD19 BRIDGE variant B11 (Fab) heavy: EVQLVESGGGLVKPGGSLKLSCAASGYTFTSYVMHWVRQAPGKGLEWIGYINPYNDGTKYNEKFQGRVTISSDKSISTAYMELSSLRSEDTAMYYCARGTYYYGTRVFDYWGQGTLVTVSSASTKGPSVFPLAPSSKSTSGGTAALGCLVKDYFPEPVTVSWNSGALTSGVHTFPAVLQSSGLYSLSSVVTVPSSSLGTQTYICNVNHKPSNTKVDKKVEPKSCHHHHHH light: GHNYTTRNILPGLNITSTFHKTSGSGKGSEPKSSDKTHTGSDIVMTQSPATLSLSPGERATLSCRSSKSLQNVNGNTYLYWFQQKPGQSPQLLIYRMSNLNSGVPDRFSGSGSGTEFTLTISSLEPEDFAVYYCMQHLEYPITFGAGTKLEIKRTVAAPSVFIFPPSDEQLKSGTASVVCLLNNFYPREAKVQWKVDNALQSGNSQESVTEQDSKDSTYSLSSTLTLSKADYEKHKVYACEVTHQGLSSPVTKSFNRGEC |
